From patent US20230365662A1
“And” between values parts separate entries of the source, which are not always exact repeats. Equal values may be shown once.

Assays:
[1] = target: HRgpA-6H (Porphyromonas gingivalis) (UniProt P28784); test: ELISA on coated HRgpA-6H (coating concentration not stated); secondary Anti-BSA (HRP)
[2] = target: HRgpA-6H (Porphyromonas gingivalis) (UniProt P28784); test: ELISA on coated HRgpA-6H (coating concentration not stated); secondary Goat Anti-Human IgG, F(ab')2
[3] = target: HRgpA-6H (Porphyromonas gingivalis) (UniProt P28784); test: ELISA on coated HRgpA-6H (coating concentration not stated); secondary Goat Anti-Human IgG (H+L)
[4] = target: HRgpA-6H (Porphyromonas gingivalis) (UniProt P28784); test: ELISA on coated HRgpA-6H (coating concentration not stated); secondary Mouse Anti-Human IgG, F(ab')2
[5] = target: Porphyromonas gingivalis strain W83 whole cells (surface gingipain/adhesin/hemagglutinin complex)
[6] = target: Porphyromonas gingivalis strain W83 whole cells (surface gingipain/adhesin/hemagglutinin complex); test: scanning electron microscopy, gold-labelled KB001
[7] = target: P. gingivalis laboratory strains, serotypes and human clinical isolates (whole cells); test: immunogold SEM

Molecule	OD450 [1]	OD450 [2]	OD450 [3]	OD450 [4]	Kd [5]	Response [5]	koff [5]	kon [5]	IgG molecules bound per bacteria (molecules per bacterium) [6]	average labeled density [7]
non-related FASEBA supernatant (NC) (Fab)	1.09	0.672	1.15 and 0.736	0.552 and 0.288	–	–	–	–	–	–
KB001 (antibody, V domains shown) VH: EVQLKQSGPGLVAPSQSLSITCTVSGFSLSIYSVHWVRQPPGKGLEWLGMIWGGGSSDYNSALKSRLSISKDNSKSQVFLKMNSLQTDDTAMYYCARNGNFYAMDYWGQGTSVTVSS VL: QIVLTQSPAIMSASLGERVTMTCTASSSVSSSFLHWYQQKPGSSPQLWIYSTSNLASGVPARFSGSGSGTSYSLTISSMEAEDAATYYCHQYHHSPYIYTFGGGTKLEIKR	–	–	–	–	11.4 nM	0.216 and 0.186 and 0.297	0.000219 s⁻¹	19200 M⁻¹ s⁻¹	60 and 80	50 µm^-2
